T1: Hair Keratin KRTHB1 Basic (UniProt Q14533 304-505, limits assumed)
T1 construct: The keratin was printed onto a bare gold SPRi chip; also called natural hair keratin
T1 sequence (looked up): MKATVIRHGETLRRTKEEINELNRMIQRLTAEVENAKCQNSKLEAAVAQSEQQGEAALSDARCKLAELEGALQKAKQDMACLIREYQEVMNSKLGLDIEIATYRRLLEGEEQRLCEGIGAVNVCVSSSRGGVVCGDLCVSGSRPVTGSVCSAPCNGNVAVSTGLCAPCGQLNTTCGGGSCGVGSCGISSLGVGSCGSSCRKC

B1: KP (peptide)
peptide: GGVCGPSPPCITT
modifications: not fully specified; cysteine pairing not given here
notes: Control peptide developed by Khairpep; also called KP peptide; third peptide
B2: Aquis Pep 2 (peptide)
peptide: CTPPSCCQLHHA
notes: also called Aquis peptide 2; Peptide Aquis 2
B3: Aquis Pep1 (peptide)
peptide: FCGFPSCSTSG
notes: also called Aquis peptide 1; Peptide Aquis 1

From patent US11712410 (K18, dated 2023) come the findings set out here.

No end group written: not given here.

One experiment addresses T1, Hair Keratin KRTHB1 Basic. The experiment is described as follows: SPRi (PlexArray HT), rank among the three peptides tested on keratin. Here is the method: (§1) Various concentrations of Keratin dissolved in water were manually printed onto the bare gold coated (thickness 47 nm) PlexArray Nanocapture Sensor Chip (Plexera Bioscience, Seattle, Wash., US) at 40% humidity. Each concentration was printed in replicate, and each spot contained 0.2 uL of […] solution. The chip was incubated in 80% humidity at 4° C. for overnight, and rinsed with 10×PBST for 10 min, 1×PBST for 10 min, and deionized water twice for 10 min. The chip was then blocked with 5% (w/v) non-fat milk in water overnight, and washed with 10×PBST for 10 min, 1×PBST for 10 min, and deionized water twice for 10 min before being dried under a stream of nitrogen prior to use. SPRi measurements were performed with PlexAray HT (Plexera Bioscience, Seattle, Wash., US). Collimated light (660 nm) passes through the coupling prism, reflects off the SPR-active gold surface, and is received the CCD camera. Buffers and samples were injected by a non-pulsatile piston pump into the 30 uL flowcell that was mounted on the coupling prim. Each measurement cycle contained four steps: washing with PBST running buffer at a constant rate of 2 uL/s to obtain a stable baseline, sample injection at 5 uL/s for binding, surface washing with PBST at 2 uL/s for 300 s, and regeneration with 0.5% (v/v) H3PO4 at 2 uL/s for 300 s. All the measurements were performed at 4° C. The signal changes after binding and washing (in AU) are recorded as the assay value. Selected protein-grafted regions in the SPR images were analyzed, and the average reflectivity variations of the chosen areas were plotted as a function of time. Real-time binding signals were recorded and analyzed by Data Analysis Module (DAM, Plexera Bioscience, Seattle, Wash., US). Kinetic analysis was performed using BIAevaluation 4.1 software (Biacore, Inc.).
With B1, the “Affinity Ranking” value stood at 2.
Same read-out and setting: in the case of B2 it was 3.
Turning to B3, the “Affinity Ranking” value came to 1.

Another experiment has as its target T1, Hair Keratin KRTHB1 Basic. Put plainly: SPRi (PlexArray HT), keratin printed on the gold chip, peptide injected; kinetic fit with BIAevaluation 4.1; five curves labelled 5.68 to 91.2 nM. Here is the method:
as §1
In the case of B1, the koff (as a rule, a measure of how fast the partners let go of each other) came to 0.00692 s⁻¹ and the kon (usually the rate constant with which the complex forms) stood at 8500 M⁻¹ s⁻¹.
The like results for B2 were, in that order, 0.0206 s⁻¹ and 8240 M⁻¹ s⁻¹.
The like results for B3 were, in that order, 0.000478 s⁻¹ and 1310 M⁻¹ s⁻¹.

A further experiment addresses T1, Hair Keratin KRTHB1 Basic. The experiment is described as follows: SPRi (PlexArray HT), keratin printed on gold chip, peptide injected, 4 C. The procedure:
as §1
As for B1, the Kd (in general, a measure of binding affinity in units of concentration) amounted to 814 nM.
On the same count and under the same terms, the same measure for B2: 2500 nM.
Still for that read-out and setting: in the case of B3 it was 365 nM.
